As a reminder, the stoichiometry N is a count of units in the complex or per binding partner.

Consider 1 protein from paper PMC2603141 (Virology, 2008).

Data set [1] concerns the molecule itself. The data set can be described thus: reducing and non-reducing SDS-PAGE.
Data set [2] deals with the molecule itself. The data set can be described thus: negative-stain electron microscopy.

B1: PIV 5 hemagglutinin-neuraminidase (HN) ectodomain beginning at residue 56, HN(ecto56) (domain or fragment)
chain: SPSSGLGSITDLLNNILSVANQIIYNSAVALPLQLDTLESTLLTAIKSLQTSDKLEQNCSWSAALINDNRYINGINQFYFSIAEGRNLTLGPLLNMPSFIPTATTPEGCTRIPSFSLTKTHWCYTHNVILNGCQDHVSSNQFVSMGIIEPTSAGFPFFRTLKTLYLSDGVNRKSCSISTVPGGCMMYCFVSTQPERDDYFSAAPPEQRIIIMYYNDTIVERIINPPGVLDVWATLNPGTGSGVYYLGWVLFPIYGGVIKGTSLWNNQANKYFIPQMVAALCSQNQATQVQNAKSSYYSSWFGNRMIQSGILACPLRQDLTNECLVLPFSNDQVLMGAEGRLYMYGDSVYYYQRSNSWWPMTMLYKVTITFTNGQPSAISAQNVPTQQVPRPGTGDCSATNRCPGFCLTGVYADAWLLTNPSSTSTFGSEATFTGSYLNTATQRINPTMYIANNTQIISSQQFGSSGQEAAYGHTTCFRDTGSVMVYCIYIIELSSSLLGQFQIVPFIRQVTLS
modifications: carbohydrate at 4 N-linked glycosylation sites; inter-chain disulfide bond (covalent dimers)
Consider B1, for which the “stoichiometry N” value in data set [1] was 2; in data set [2] it was 4.
